Data on 10 substances can be found in FireProtDB (doi:10.1021/bi00021a022).

For the data set the following is noted: Saccharomyces cerevisiae (strain ATCC 204508 / S288c), reversible: yes.
Setting [1] is: pH 3.5, 27 °C, Thermal, DSC, Potassium acetate 50 mM, structure 1YCC.
The mark [2] stands for this setting: pH 3.5, Thermal, DSC, Potassium acetate 50 mM, structure 1YCC.
Setting [3] is: pH 4, 27 °C, Thermal, DSC, Potassium acetate 50 mM, structure 1YCC.
Where [4] appears, read: pH 4, Thermal, DSC, Potassium acetate 50 mM, structure 1YCC.
Setting [5] is: pH 4.6, 27 °C, Thermal, DSC, Potassium acetate 50 mM, structure 1YCC.
Where [6] appears, read: pH 4.6, Thermal, DSC, Potassium acetate 50 mM, structure 1YCC.
Where [7] appears, read: pH 5, 27 °C, Thermal, DSC, Potassium acetate 50 mM, structure 1YCC.
[8] abbreviates: pH 5, Thermal, DSC, Potassium acetate 50 mM, structure 1YCC.
The mark [9] stands for this setting: pH 7, 22 °C, GdnHCl, Fluorescence, Potassium phosphate 0.1 M, structure 1YCC.
[10] abbreviates: pH 3.5, Thermal, DSC, Potassium acetate 50 mM.
Setting [11] is: pH 4, Thermal, DSC, Potassium acetate 50 mM.
Where [12] appears, read: pH 4.6, Thermal, DSC, Potassium acetate 50 mM.
Where [13] appears, read: pH 5, Thermal, DSC, Potassium acetate 50 mM.
The mark [14] stands for this setting: pH 7, 22 °C, GdnHCl, Fluorescence, Potassium phosphate 0.1 M.

Cytochrome c isoform 1 N58V, P00044, sequence (P00044 whole entry N58V, canonical isoform): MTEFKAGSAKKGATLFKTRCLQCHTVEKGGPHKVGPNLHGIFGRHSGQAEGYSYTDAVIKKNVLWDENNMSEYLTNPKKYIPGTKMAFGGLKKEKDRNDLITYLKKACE
Cytochrome c isoform 1 wild type, P00044, sequence (P00044 whole entry, canonical isoform): as the sequence (P00044 whole entry N58V, canonical isoform) above, with V58N counted along it
Cytochrome c isoform 1 N58I, P00044, sequence (P00044 whole entry N58I, canonical isoform): as the sequence (P00044 whole entry N58V, canonical isoform) above, with V58I counted along it
Cytochrome c isoform 1 N58M, P00044, sequence (P00044 whole entry N58M, canonical isoform): as the sequence (P00044 whole entry N58V, canonical isoform) above, with V58M counted along it
Cytochrome c isoform 1 N58T, P00044, sequence (P00044 whole entry N58T, canonical isoform): as the sequence (P00044 whole entry N58V, canonical isoform) above, with V58T counted along it
Cytochrome c isoform 1 N58A, P00044, sequence (P00044 whole entry N58A, canonical isoform): as the sequence (P00044 whole entry N58V, canonical isoform) above, with V58A counted along it
Cytochrome c isoform 1 N58Q, P00044, sequence (P00044 whole entry N58Q, canonical isoform): as the sequence (P00044 whole entry N58V, canonical isoform) above, with V58Q counted along it
Cytochrome c isoform 1 N58S, P00044, sequence (P00044 whole entry N58S, canonical isoform): as the sequence (P00044 whole entry N58V, canonical isoform) above, with V58S counted along it
Cytochrome c isoform 1 N58H, P00044, sequence (P00044 whole entry N58H, canonical isoform): as the sequence (P00044 whole entry N58V, canonical isoform) above, with V58H counted along it

By Tm is commonly meant the temperature at which the thermal transition is half complete. For Cytochrome c isoform 1 N58T, P00044, the “ddG of mutation (higher = less stable)” value under setting [1] was -0.98 kcal/mol; the “ddG of mutation (higher = less stable)” value under setting [3] was -1.01 kcal/mol; the “ddG of mutation (higher = less stable)” value under setting [5] is -0.59 kcal/mol; the “ddG of mutation (higher = less stable)” value under setting [7] is 0.53 kcal/mol; the “ddG of mutation (higher = less stable)” value under setting [9] is -1.9 kcal/mol. In addition, the unfolding free energy turned out to be 2.62 kcal/mol under setting [1]; 3.53 kcal/mol under setting [3]; 4.62 kcal/mol under setting [5]; 5.09 kcal/mol under setting [7]; 7.76 kcal/mol under setting [9]. The Tm is, setting by setting: under setting [2], 45.4 °C; under setting [4], 49.2 °C; under setting [6], 54.5 °C; under setting [8], 55.3 °C. Further, the “change of melting temperature, mutant - wild type (higher = more stable)” value (from here on “change of melting temperature, mutant”) is 5.3 °C under setting [2], 3.8 °C under setting [4], 5.3 °C under setting [6] and -8 °C under setting [8]. In addition, the “unfolding enthalpy (calorimetric)” value turned out to be 63.4 kcal/mol under setting [2], 75.3 kcal/mol under setting [4], 82.9 kcal/mol under setting [6] and 88.6 kcal/mol under setting [8]. Besides, under setting [9], the “denaturant midpoint (higher = more stable)” value (“denaturant midpoint” below) came out at 1.58 M.
On to Cytochrome c isoform 1 N58A, P00044, for which, under setting [5], the “ddG of mutation (higher = less stable)” value is -0.63 kcal/mol and the unfolding free energy turned out to be 4.66 kcal/mol. Under setting [6], the Tm is 53.7 °C; the “change of melting temperature, mutant” value was 4.5 °C; the “unfolding enthalpy (calorimetric)” value turned out to be 84 kcal/mol. Moreover, under setting [9], the “ddG of mutation (higher = less stable)” value was -2.97 kcal/mol, the “denaturant midpoint” value turned out to be 1.52 M and the unfolding free energy came out at 8.83 kcal/mol.
Turning to Cytochrome c isoform 1 N58M, P00044, under setting [3], the “ddG of mutation (higher = less stable)” value was -2.91 kcal/mol and the unfolding free energy came to 5.43 kcal/mol. Under setting [4], the Tm came out at 58.9 °C; the “change of melting temperature, mutant” value came out at 13.5 °C; the “unfolding enthalpy (calorimetric)” value is 89 kcal/mol. Further, under setting [5], the “ddG of mutation (higher = less stable)” value was -2.25 kcal/mol and the unfolding free energy worked out at 6.28 kcal/mol. For the same substance, under setting [6], the Tm is 62.6 °C; the “change of melting temperature, mutant” value amounted to 13.4 °C; the “unfolding enthalpy (calorimetric)” value came out at 96 kcal/mol. Under setting [9], the “ddG of mutation (higher = less stable)” value was -4.04 kcal/mol, the “denaturant midpoint” value worked out at 2.14 M and the unfolding free energy was 9.9 kcal/mol.
Cytochrome c isoform 1 N58Q, P00044 showed an unfolding free energy under setting [5] of 3.95 kcal/mol. Also, under setting [6], the Tm was determined as 51.2 °C; the “change of melting temperature, mutant” value was 2 °C; the “unfolding enthalpy (calorimetric)” value was found to be 78.7 kcal/mol. Further, under setting [9], the “denaturant midpoint” value worked out at 1.39 M and the unfolding free energy came to 5.02 kcal/mol.
As to Cytochrome c isoform 1 N58V, P00044, under setting [3], the “ddG of mutation (higher = less stable)” value is -2.44 kcal/mol and the unfolding free energy is 4.96 kcal/mol. In addition, under setting [4], the Tm came to 54.3 °C; the “change of melting temperature, mutant” value amounted to 8.9 °C; the “unfolding enthalpy (calorimetric)” value worked out at 86.5 kcal/mol. Moreover, under setting [5], the “ddG of mutation (higher = less stable)” value is -1.67 kcal/mol and the unfolding free energy was 5.7 kcal/mol. For the same substance, under setting [6], the Tm is 58 °C; the “change of melting temperature, mutant” value is 8.8 °C; the “unfolding enthalpy (calorimetric)” value came out at 92.4 kcal/mol. Under setting [9], the “ddG of mutation (higher = less stable)” value is -2.02 kcal/mol, the “denaturant midpoint” value was found to be 1.77 M and the unfolding free energy turned out to be 7.88 kcal/mol.
Take Cytochrome c isoform 1 N58I, P00044: the “ddG of mutation (higher = less stable)” value runs as follows: under setting [1], -2.62 kcal/mol; under setting [3], -3.03 kcal/mol; under setting [7], -2.02 kcal/mol; under setting [9], -4.1 kcal/mol. The unfolding free energy came to 4.26 kcal/mol under setting [1], 5.55 kcal/mol under setting [3], 7.64 kcal/mol under setting [7] and 9.96 kcal/mol under setting [9]. Moreover, the Tm amounted to 52.4 °C under setting [2], 62.2 °C under setting [6] and 64.2 °C under setting [8]. Besides, the “change of melting temperature, mutant” value came to 12.3 °C under setting [2], 13 °C under setting [6] and 0.9 °C under setting [8]. The “unfolding enthalpy (calorimetric)” value runs as follows: under setting [2], 80.7 kcal/mol; under setting [6], 101 kcal/mol; under setting [8], 108 kcal/mol. In addition, the “denaturant midpoint” value under setting [9] was 2.09 M.
“Cytochrome c isoform 1 wild type, P00044”: the unfolding free energy came out at 1.64 kcal/mol (pH 3.5, 27 °C, Thermal, DSC, Potassium acetate 50 mM); 2.52 kcal/mol (pH 4, 27 °C, Thermal, DSC, Potassium acetate 50 mM); 4.03 kcal/mol (pH 4.6, 27 °C, Thermal, DSC, Potassium acetate 50 mM); 5.62 kcal/mol (pH 5, 27 °C, Thermal, DSC, Potassium acetate 50 mM); 5.86 kcal/mol under setting [14]. Also, the midpoint of thermal melting (Tm) by setting is: under setting [10], 40.1 °C; under setting [11], 45.4 °C; under setting [12], 49.2 °C; under setting [13], 63.3 °C. In addition, the “unfolding enthalpy (calorimetric)” value under setting [10] was 55.3 kcal/mol, the “unfolding enthalpy (calorimetric)” value under setting [11] came to 64.2 kcal/mol, the “unfolding enthalpy (calorimetric)” value under setting [12] is 78.8 kcal/mol and the “unfolding enthalpy (calorimetric)” value under setting [13] came to 107 kcal/mol. Besides, the “denaturant midpoint” value under setting [14] worked out at 1.34 M.
As for Cytochrome c isoform 1 N58H, P00044, under setting [5], the “ddG of mutation (higher = less stable)” value is 1.27 kcal/mol and the unfolding free energy is 2.76 kcal/mol. Also, under setting [6], the Tm was 47.5 °C; the “change of melting temperature, mutant” value is -1.7 °C; the “unfolding enthalpy (calorimetric)” value stood at 64.1 kcal/mol. Also, under setting [9], the “ddG of mutation (higher = less stable)” value turned out to be 1.7 kcal/mol, the “denaturant midpoint” value was 1.41 M and the unfolding free energy came out at 4.16 kcal/mol.
Cytochrome c isoform 1 N58L, P00044: under setting [5], the “ddG of mutation (higher = less stable)” value was -2.56 kcal/mol and the unfolding free energy is 6.59 kcal/mol. Also, under setting [6], the Tm was 62.1 °C; the “change of melting temperature, mutant” value was 12.9 °C; the “unfolding enthalpy (calorimetric)” value worked out at 97.4 kcal/mol. Further, under setting [9], the “ddG of mutation (higher = less stable)” value is -4.73 kcal/mol, the “denaturant midpoint” value is 2.17 M and the unfolding free energy was 10.6 kcal/mol.
Regarding Cytochrome c isoform 1 N58S, P00044, the “ddG of mutation (higher = less stable)” value runs as follows: under setting [3], -0.74 kcal/mol; under setting [5], 0.05 kcal/mol; under setting [7], 1.29 kcal/mol. Besides, the unfolding free energy reads like this: under setting [3], 3.26 kcal/mol; under setting [5], 3.98 kcal/mol; under setting [7], 4.33 kcal/mol. In addition, the Tm under setting [4] was determined as 46.7 °C, the Tm under setting [6] was 51 °C and the Tm under setting [8] stood at 52.6 °C. The “change of melting temperature, mutant” value was 1.3 °C under setting [4], 1.8 °C under setting [6] and -10.7 °C under setting [8]. Further, the “unfolding enthalpy (calorimetric)” value by setting is: under setting [4], 70.8 kcal/mol; under setting [6], 78.7 kcal/mol; under setting [8], 83.2 kcal/mol.
